In data set [1] the test system is B2M locus. As to the kind of experiment: B2M repression by HLA immunostaining and flow cytometry in HEK293T cells transfected with LTRP:gRNA plasmids.
Data set [2] concerns PCSK9 locus. As to the kind of experiment: Editing (indel rate by NGS) at the PCSK9 locus in HepG2 cells lipofected with CasX 491 mRNA and gRNA. The data set is classed as cell-based, human. The settings on record: CasX 491 mRNA, v1 gRNAs spacers 6.7 and 6.8, 28 hours. The protocol:
(§1) Editing at the PCSK9 locus and consequential effects on secreted PCSK9 levels were assessed for conditions using CasX 491 mRNA co-delivered with a PCSK9-targeting gRNA with scaffold variant 174 compared to conditions where a PCSK9-targeting gRNA with scaffold variant 316 was used. 100 ng of in vitro transcribed mRNA coding for CasX 491 with a P2A and mScarlet fluorescent protein was transfected into HepG2 cells with version 1 (v1) of gRNAs 174-6.7, 174-6.8, 316-6.7, and 316-6.8 (see Table 45) using lipofectamine. After a media change, the following were harvested at 28 hours post-transfection: 1) transfected cells were harvested for editing assessment at the PCSK9 locus by NGS (next generation sequencing); and 2) media supernatant was harvested to measure secreted PCSK9 protein levels by ELISA. For editing analysis by NGS, amplicons were amplified from 200 ng of extracted gDNA with a set of primers targeting the PCSK9 locus and processed as described earlier in Example 1. Secreted PCSK9 levels in the media supernatant were also analyzed using a fluorescence resonance energy transfer-based immunoassay from CISBio following the manufacturer's instructions. […]
(§2) V1 through v6 variants of chemically-modified PCSK9-targeting gRNAs (Table 45) were assessed for their effects on editing potency and consequential effects on secreted PCSK9 levels in vitro. […]

In data set [3] the test system is PCSK9 locus. As to the kind of experiment: Secreted PCSK9 levels in media of HepG2 cells lipofected with CasX 491 mRNA and gRNA. The data set is classed as cell-based, human. Conditions: CasX 491 mRNA, v1 gRNAs spacers 6.7 and 6.8, compared with scaffold 174. How it is done:
as §1, §2

Data set [4] relates to B2M locus. As to the kind of experiment: B2M knockout (loss of HLA surface presentation, flow cytometry) in HepG2 cells with CasX 491 mRNA and B2M-targeting gRNA. Conditions: LNPs, CasX 491 mRNA, spacer 7.9 v1, each dose, compared with scaffold 174. The data set is classed as cell-based, human. The protocol: To compare the editing potency of version 0 (v0) and version 1 (v1) of B2M-targeting gRNAs, ~6E4 HepG2 hepatocytes were seeded per well of a 96-well plate. 24 hours later, seeded cells were co-transfected using lipofectamine with 100 ng of in vitro transcribed mRNA coding for CasX 491 and different doses (1, 5, or 50 ng) of either v0 or v1 of the B2M-targeting gRNA containing scaffold variant 174 and spacer 7.37 (see Table 45).
(§3) ~50,000 HepG2 cells, cultured in DMEM/F-12 media containing 10% FBS and 1% PenStrep, were seeded per well in a 96-well plate. The next day, seeded cells were treated with varying concentrations of LNPs, which were prepared in six 2-fold serial dilutions starting at 250 ng. These LNPs were formulated to encapsulate CasX 491 mRNA and a B2M-targeting gRNA incorporating either scaffold variant 174 or 316 with spacer 7.9 (v1; see Table 45). Media was changed 24 hours after LNP treatment, and cells were cultured for six additional days prior to harvesting for gDNA extraction for editing assessment at the B2M locus by NGS and B2M protein expression analysis via HLA immunostaining, followed by flow cytometry using the Attune NxT flow cytometer. Briefly, for editing assessment, amplicons were amplified from 200 ng of extracted gDNA with primers targeting the human B2M locus and processed as described in Example 1.

Another data set relates to human B2M locus. As to the kind of experiment: Indel rate by NGS at the human B2M locus in HepG2 cells treated with LNPs (CasX 491 mRNA and gRNA). The settings on record: CasX 491 mRNA. It is filed as cell-based. How it is done:
as §3

The test system of data set [5] is 6.7/6.8 target dsDNA. As to the kind of experiment: Competent (active) fraction of CasX 491 RNPs formed by each gRNA, equimolar cleavage assay. Conditions: CasX 491 RNP, v1 gRNA, spacer 6.7 or 6.8. It is filed as biochemical. The protocol:
(§4) Double-stranded DNA (dsDNA) targets were formed by mixing the oligos in a 1:1 ratio in 1× cleavage buffer (20 mM Tris HCl pH 7.5, 150 mM NaCl, 1 mM TCEP, […], 10 mM MgCl2), following by heating to 95° C. for 10 minutes, and then allowing the solution to cool to room temperature. CasX ribonucleoproteins (RNPs) were reconstituted with CasX 491 and the indicated gRNAs at a final concentration of 1 μM with 1.2-fold excess of the indicated gRNA in 1× cleavage buffer. RNPs were allowed to form at 37° C. for 10 minutes.
To determine the competent fraction formed by each gRNA, cleavage reactions were prepared with final RNP concentrations of 100 nM and final target concentrations of 100 nM. Reactions were carried out at 37° C. and initiated by the addition of the labeled target substrate (Table 46). Aliquots were taken at 0.5, 1, 2, 5, 10, and 30 minutes and quenched by adding an equal volume of 95% formamide with 25 mM EDTA. Samples were denatured by heating at 95° C. for 10 minutes and resolved on a 10% urea-PAGE gel. Gels were imaged and quantified as above. […] The plateau of each fit was determined and reported as the active fraction for each RNP in Table 49.

In data set [6] the test system is 6.7/6.8 target dsDNA. In words: In vitro cleavage rate (kcleave) of CasX 491 RNPs with gRNA variants on labeled dsDNA target. It is filed as biochemical. The settings on record: CasX 491 RNP, v1 gRNA, compared with scaffold 174. How it is done:
as §4
The effects of various structural and chemical modifications to the gRNA scaffold on the cleavage rate of CasX 491 RNPs were determined. Cleavage reactions were prepared with final RNP concentrations of 200 nM and final target concentrations of 10 nM, and reactions were carried out at 16° C. and initiated by the addition of the labeled target DNA substrate (Table 46). Aliquots of reactions were taken at 0.25, 0.5, 1, 2, 5, and 10 minutes and quenched by adding an equal volume of 95% formamide with 20 mM EDTA. Samples were denatured at 95° C. for 10 minutes and resolved on a 10% urea-PAGE gel. Gels were imaged on a Typhoon™ laser-scanner platform and quantified using ImageQuant™ TL 8.2 image analysis software (Cytiva™). The apparent first-order rate constant of non-target strand cleavage (kcieave-) was determined for each CasX:gRNA combination.

The results in this text go back to patent US20260240958A1, “REPRESSOR FUSION PROTEIN SYSTEMS” (Scribe Therapeutics Inc., priority 2023, published 2026).

B1: DOMAIN_26749: repressor domain, Ophiophagus hannah, SEQ ID NO 135 (protein)
chain: STPVTFEDVVVYFTAAEWVHLTNWQRDFYQAVMMETYELVASVAGDGVPMAEDEEGGVERPVWQYIPRGKRRRKTPQPRAD
modifications: Ophiophagus hannah
With B1, in the data set with B2M locus [1] (4 days post-transfection), the “B2M repression as second repressor domain in LTRP6 configuration” value is listed as “highest level of B2M repression at 4 days post-transfection”. Besides, in the data set with B2M locus [1] (gRNA scaffold 174 spacer 7.165, LTRP6 = ZIM3 first, named domain second repressor domain, day not stated in text (Tables 16-18, days 4-13)), the “B2M repression (HLA-negative cells)” value is ~ 83.800%.

B2: scaffold 316: chimeric gRNA scaffold: scaffold 235 with extended stem loop of scaffold 174; SEQ ID NO 1746 (nucleic acid)
guide: ACUGGCGCUUCUAUCUGAUUACUCUGAGCGCCAUCACCAGCGACUAUGUCGUAGUGGGUAAAGCUCCCUCUUCGGAGGGAGCAUCAGAG
modifications: listed as RNA, further chemistry not given here
Turning to B2, in the data set with PCSK9 locus [2], the “increase in editing rate at the PCSK9 locus over scaffold 174” value is given as ~ 10 percentage point. Moreover, in the data set on PCSK9 locus [3], the “reduction of PCSK9 secretion” value was “more effective reduction of PCSK9 secretion”. In addition, the “editing potency at the B2M locus (loss of HLA surface presentation)” value in the data set on B2M locus [4] was “higher editing potency at the B2M locus”. Moreover, the “editing potency at the B2M locus (indel rate by NGS)” value with human B2M locus (spacer 7.9 v1, each dose, compared with scaffold 174) is on record as “higher editing potency at the B2M locus”. In addition, the “editing level at the B2M locus compared with scaffold 174” value with human B2M locus (spacer 7.9 v1, highest dose of 250 ng) is reported as “nearly two-fold higher”. The “active fraction higher than for scaffold 174” value in the data set with 6.7/6.8 target dsDNA [5] was 25-30%. The cleavage rate result in the data set on 6.7/6.8 target dsDNA [6] (spacer 6.7) is “marginally faster cleavage”; in the data set with 6.7/6.8 target dsDNA [6] (spacer 6.8) it was “nearly twice as quickly”.
